According to patent publication US20200165325A1:
Read-outs that look alike come from different tables or passages of the source.

Key:
[1] = target: Env (gp120) of HIV-1 strain CAP45.2.00.G3 (HIV-1)
[2] = target: Env (gp120) of HIV-1 strain AC10.0.29 (HIV-1)
[3] = target: Env (gp120) of HIV-1 strain TRO.11 (HIV-1)
[4] = target: Env (gp120) of HIV-1 strain CAP210.2.00.E8 (HIV-1)
[5] = target: Env (gp120) of HIV-1 strain SC422661.8 (HIV-1)
[6] = target: Env (gp120) of HIV-1 strain 0815.v3.c3 (HIV-1)
[7] = target: Env (gp120) of HIV-1 strain ZM247v1(Rev-) (HIV-1)
[8] = target: Env (gp120) of HIV-1 strain T278-50 (HIV-1)
[9] = target: Env (gp120) of HIV-1 strain T257-31 (HIV-1)
[10] = target: Env (gp120) of HIV-1 strain 1054_07_TC4_1499 (HIV-1)
[11] = target: Env (gp120) of HIV-1 strain Du172.17 (HIV-1)
[12] = target: Env (gp120) of HIV-1 strain T251-18 (HIV-1)
[13] = target: Env (gp120) of HIV-1 strain 62357_14_D3_4589 (HIV-1)
[14] = target: Env (gp120) of HIV-1 strain 1006_11_C3_1601 (HIV-1)
[15] = target: Env (gp120) of HIV-1 strain THRO4156.18 (HIV-1)
[16] = target: Env (gp120) of HIV-1 strain WEAU_d15_410_787 (HIV-1)
[17] = target: Env (gp120) of HIV-1 strain 3016.v5.c45 (HIV-1)
[18] = target: Env (gp120) of HIV-1 strain AC10.0.29 (HIV-1); remark: listed apart in the source
[19] = target: Env (gp120) of HIV-1 strain C3347.c11 (HIV-1)
[20] = target: Env (gp120) of HIV-1 strain CNE58 (HIV-1)
[21] = target: Env (gp120) of HIV-1 strain ZM249M.PL1 (HIV-1)
[22] = target: Env (gp120) of HIV-1 strain 231965.c01 (HIV-1)
[23] = target: Env (gp120) of HIV-1 strain ZM233M.PB6 (HIV-1)
[24] = target: Env (gp120) of HIV-1 strain CNE21 (HIV-1)
[25] = target: Env (gp120) of HIV-1 strain HIV-16845-2.22 (HIV-1)
[26] = target: Env (gp120) of HIV-1 strain Du422.1 (HIV-1)
[27] = target: Env (gp120) of HIV-1 strain CNE30 (HIV-1)
[28] = target: Env (gp120) of HIV-1 strain R1166.c01 (HIV-1)
[29] = target: Env (gp120) of HIV-1 strain WITO4160.33 (HIV-1)
[30] = target: Env (gp120) of HIV-1 strain 3415.v1.c1 (HIV-1)
[31] = target: Env (gp120) of HIV-1 strain Q769.d22 (HIV-1)
[32] = target: Env (gp120) of HIV-1 strain 6811.v7.c18 (HIV-1)
[33] = target: Env (gp120) of HIV-1 strain 231966.c02 (HIV-1)
[34] = target: Env (gp120) of HIV-1 strain ZM109F.PB4 (HIV-1)
[35] = target: Env (gp120) of HIV-1 strain P0402_c2_11 (HIV-1)
[36] = target: Env (gp120) of HIV-1 strain 1056_10_TA11_1826 (HIV-1)
[37] = target: Env (gp120) of HIV-1 strain 928-28 (HIV-1)
[38] = target: Env (gp120) of HIV-1 strain Q842.d12 (HIV-1)
[39] = target: Env (gp120) of HIV-1 strain Q259.d2.17 (HIV-1)
[40] = target: Env (gp120) of HIV-1 strain 3103.v3.c10 (HIV-1)
[41] = target: Env (gp120) of HIV-1 strain QH0692.42 (HIV-1)
[42] = target: Env (gp120) of HIV-1 strain X2131_C1_B5 (HIV-1)
[43] = target: Env (gp120) of HIV-1 strain 211-9 (HIV-1)
[44] = target: Env (gp120) of HIV-1 strain R2184.c04 (HIV-1)
[45] = target: Env (gp120) of HIV-1 strain 3301.v1.c24 (HIV-1)
[46] = target: Env (gp120) of HIV-1 strain CNE17 (HIV-1)
[47] = target: Env (gp120) of HIV-1 strain CNE53 (HIV-1)
[48] = target: Env (gp120) of HIV-1 strain P1981_C5_3 (HIV-1)
[49] = target: Env (gp120) of HIV-1 strain REJO4541.67 (HIV-1)
[50] = target: Env (gp120) of HIV-1 strain Ce703010054_2A2 (HIV-1)

NIH45-46^G54W IgG (antibody)
neutralization IC50 [1]: 6.6 µg/mL
neutralization IC50 [2]: 0.2 µg/mL
neutralization IC50 [3]: 0.09 µg/mL
neutralization IC50 [4]: 41 µg/mL
neutralization IC50 [5]: 0.03 µg/mL
neutralization IC50 [6]: < 0.001 µg/mL
neutralization IC50 [7]: 0.32 µg/mL
neutralization IC50 [8]: > 50 µg/mL
neutralization IC50 [9]: 0.13 µg/mL
neutralization IC50 [10]: 0.04 µg/mL
neutralization IC50 [11]: 3.65 µg/mL
neutralization IC50 [12]: 0.26 µg/mL
neutralization IC50 [13]: 0.02 µg/mL
neutralization IC50 [14]: < 0.001 µg/mL
neutralization IC50 [15]: 0.54 µg/mL
neutralization IC50 [16]: < 0.001 µg/mL
neutralization IC50 [17]: 1.47 µg/mL
neutralization IC50 [18]: 0.13 µg/mL
neutralization IC50 [19]: < 0.001 µg/mL
neutralization IC50 [20]: 0.02 µg/mL
neutralization IC50 [21]: 0.002 µg/mL
neutralization IC50 [22]: < 0.001 µg/mL
neutralization IC50 [23]: 0.02 µg/mL
neutralization IC50 [24]: 0.03 µg/mL
neutralization IC50 [25]: 0.45 µg/mL
neutralization IC50 [26]: > 50 µg/mL
neutralization IC50 [27]: 0.052 µg/mL
neutralization IC50 [28]: 0.13 µg/mL
neutralization IC50 [29]: 0.01 µg/mL
neutralization IC50 [30]: < 0.001 µg/mL
neutralization IC50 [31]: < 0.001 µg/mL
neutralization IC50 [32]: < 0.001 µg/mL
neutralization IC50 [33]: 0.02 µg/mL
neutralization IC50 [34]: 0.002 µg/mL
neutralization IC50 [35]: 0.003 µg/mL
neutralization IC50 [36]: 0.024 µg/mL
neutralization IC50 [37]: 0.06 µg/mL
neutralization IC50 [38]: 0.005 µg/mL
neutralization IC50 [39]: < 0.001 µg/mL
neutralization IC50 [40]: 0.2 µg/mL
neutralization IC50 [41]: 0.37 µg/mL
neutralization IC50 [42]: 0.05 µg/mL
neutralization IC50 [43]: 16.4 µg/mL
neutralization IC50 [44]: 0.005 µg/mL
neutralization IC50 [45]: < 0.001 µg/mL
neutralization IC50 [46]: 0.036 µg/mL
neutralization IC50 [47]: < 0.001 µg/mL
neutralization IC50 [48]: 0.02 µg/mL
neutralization IC50 [49]: 0.002 µg/mL
neutralization IC50 [50]: 0.027 µg/mL

NIH45-46^G54F IgG (antibody)
neutralization IC50 [1]: > 50 µg/mL
neutralization IC50 [2]: 0.3 µg/mL
neutralization IC50 [3]: 0.08 µg/mL
neutralization IC50 [4]: > 50 µg/mL
neutralization IC50 [5]: 0.02 µg/mL
neutralization IC50 [6]: < 0.001 µg/mL
neutralization IC50 [7]: 0.28 µg/mL
neutralization IC50 [8]: > 50 µg/mL
neutralization IC50 [9]: 0.17 µg/mL
neutralization IC50 [10]: 0.076 µg/mL
neutralization IC50 [11]: > 50 µg/mL
neutralization IC50 [12]: 0.41 µg/mL
neutralization IC50 [13]: 0.04 µg/mL
neutralization IC50 [14]: 0.003 µg/mL
neutralization IC50 [15]: 0.89 µg/mL
neutralization IC50 [16]: < 0.001 µg/mL
neutralization IC50 [17]: 5.82 µg/mL
neutralization IC50 [18]: 0.24 µg/mL
neutralization IC50 [19]: 0.015 µg/mL
neutralization IC50 [20]: 0.04 µg/mL
neutralization IC50 [21]: 0.004 µg/mL
neutralization IC50 [22]: 0.022 µg/mL
neutralization IC50 [23]: 0.22 µg/mL
neutralization IC50 [24]: 0.12 µg/mL
neutralization IC50 [25]: 0.59 µg/mL
neutralization IC50 [26]: > 50 µg/mL
neutralization IC50 [27]: 0.1 µg/mL
neutralization IC50 [28]: 0.4 µg/mL
neutralization IC50 [29]: 0.02 µg/mL
neutralization IC50 [30]: < 0.001 µg/mL
neutralization IC50 [31]: 0.005 µg/mL
neutralization IC50 [32]: 0.017 µg/mL
neutralization IC50 [33]: 0.06 µg/mL
neutralization IC50 [34]: 0.022 µg/mL
neutralization IC50 [35]: 0.008 µg/mL
neutralization IC50 [36]: 0.064 µg/mL
neutralization IC50 [37]: 0.11 µg/mL
neutralization IC50 [38]: 0.011 µg/mL
neutralization IC50 [39]: 0.009 µg/mL
neutralization IC50 [40]: 0.37 µg/mL
neutralization IC50 [41]: 0.56 µg/mL
neutralization IC50 [42]: 0.1 µg/mL
neutralization IC50 [43]: > 50 µg/mL
neutralization IC50 [44]: 0.015 µg/mL
neutralization IC50 [45]: 0.001 µg/mL
neutralization IC50 [46]: 0.075 µg/mL
neutralization IC50 [47]: 0.005 µg/mL
neutralization IC50 [48]: 0.03 µg/mL
neutralization IC50 [49]: 0.007 µg/mL
neutralization IC50 [50]: 0.02 µg/mL

NIH45-46 IgG (antibody)
neutralization IC50 [1]: > 50 µg/mL
neutralization IC50 [3]: 1 µg/mL
neutralization IC50 [4]: > 50 µg/mL
neutralization IC50 [6]: 0.014 µg/mL
neutralization IC50 [7]: 2.94 µg/mL
neutralization IC50 [8]: > 50 µg/mL
neutralization IC50 [9]: 0.49 µg/mL
neutralization IC50 [10]: 0.113 µg/mL
neutralization IC50 [11]: > 50 µg/mL
neutralization IC50 [12]: 1.35 µg/mL
neutralization IC50 [13]: 0.06 µg/mL
neutralization IC50 [14]: 0.027 µg/mL
neutralization IC50 [15]: 1.91 µg/mL
neutralization IC50 [16]: 0.005 µg/mL
neutralization IC50 [17]: > 50 µg/mL
neutralization IC50 [18]: 0.56 µg/mL
neutralization IC50 [19]: 0.029 µg/mL
neutralization IC50 [20]: 0.43 µg/mL
neutralization IC50 [21]: 0.017 µg/mL
neutralization IC50 [22]: 0.051 µg/mL
neutralization IC50 [23]: 2.5 µg/mL
neutralization IC50 [24]: 6.01 µg/mL
neutralization IC50 [25]: 5 µg/mL
neutralization IC50 [26]: > 50 µg/mL
neutralization IC50 [27]: 0.309 µg/mL
neutralization IC50 [28]: 0.31 µg/mL
neutralization IC50 [29]: 0.06 µg/mL
neutralization IC50 [30]: 0.022 µg/mL
neutralization IC50 [31]: 0.009 µg/mL
neutralization IC50 [32]: 0.035 µg/mL
neutralization IC50 [33]: 1.64 µg/mL
neutralization IC50 [34]: 0.095 µg/mL
neutralization IC50 [35]: 0.073 µg/mL
neutralization IC50 [36]: 0.094 µg/mL
neutralization IC50 [37]: 0.23 µg/mL
neutralization IC50 [38]: 0.031 µg/mL
neutralization IC50 [39]: 0.043 µg/mL
neutralization IC50 [40]: 1.77 µg/mL
neutralization IC50 [41]: 0.72 µg/mL
neutralization IC50 [42]: 0.23 µg/mL
neutralization IC50 [43]: > 50 µg/mL
neutralization IC50 [44]: 0.034 µg/mL
neutralization IC50 [45]: 0.009 µg/mL
neutralization IC50 [46]: 0.261 µg/mL
neutralization IC50 [47]: 0.008 µg/mL
neutralization IC50 [48]: 0.08 µg/mL
neutralization IC50 [49]: 0.014 µg/mL
neutralization IC50 [50]: 0.159 µg/mL
